# Settings: Bacillus amyloliquefaciens, 20 °C, Urea, Fluorescence, whole UniProt chain shown
# [1] = pH 2.76, diglycine 30 mM, NaCl 0.5 M
# [2] = pH 2.82, diglycine 30 mM, NaCl 0.1 M
protein,measurement,setting,value
"Ribonuclease wild type, P00648 (protein) MMKMEGIALKKRLSWISVCLLVLVSAAGMLFSTAAKTETSSHKAHTEAQVINTFDGVADYLQTYHKLPDNYITKSEAQALGWVASKGNLADVAPGKSIGGDIFSNREGKLPGKSGRTWREADINYTSGFRNSDRILYSSDWLIYKTTDHYQTFTKIR",denaturant m value,"pH 2.5, diglycine 100 mM",3.22 kcal/mol/M
same,denaturant midpoint (higher = more stable),"pH 2.5, diglycine 100 mM",0.52 M
same,unfolding free energy,"pH 2.5, diglycine 100 mM",1.66 kcal/mol
same,denaturant m value,[1],2.62 kcal/mol/M
same,denaturant midpoint (higher = more stable),[1],1.61 M
same,unfolding free energy,[1],4.2 kcal/mol
same,denaturant m value,[2],2.97 kcal/mol/M
same,denaturant midpoint (higher = more stable),[2],1.21 M
same,unfolding free energy,[2],3.58 kcal/mol
same,denaturant m value,"pH 2.87, diglycine 30 mM",3.19 kcal/mol/M
same,denaturant midpoint (higher = more stable),"pH 2.87, diglycine 30 mM",1.14 M
same,unfolding free energy,"pH 2.87, diglycine 30 mM",3.63 kcal/mol
same,denaturant m value,"pH 2.98, diglycine 100 mM",3.28 kcal/mol/M
same,denaturant midpoint (higher = more stable),"pH 2.98, diglycine 100 mM",1.39 M
same,unfolding free energy,"pH 2.98, diglycine 100 mM",4.55 kcal/mol
